# Results: the DeepSol protein solubility set
# Experiment: soluble on expression in E. coli; label from the status in PepcDB or PDB records
row,Sequence,soluble on expression in E. coli
1,MSLGAYLSEPLTTKDSSDESNEFLASGSSSMQGWRISQEDAHNCILNFDDQCSFFAVYDGHGGAEVAQYCSLHLPTFLKTVEAYGRKEFEKALKEAFLGFDATLLQEKVIEELKVLSGDSAGSDAEPGKDSGCTAVVALLHGKDLYVANAGDSRCVVCRNGKALEMSFDHKPEDTVEYQRIEKAGGRVTLDGRVNGGLNLSRAIGDHGYKMNKSLPAEEQMISALPDIEKITVGPEDEFMVLACDGIWNFMTSEQVVQFVQERINKPGMKLSKICEELFDHCLAPHTRGDGTGCDNMTAIIVQFKEGHHHHHH,soluble
2,MSLGDSRGRVFSWSVSDQPGRSAADHWVKDEGGDSCSGCSVRFSLTERRHHCRNCGQLFCQKCSRFQSEIKRLKISSPVRVCQNCYYSLQHERGAEDGPRNCEGHHHHHH,soluble
3,MSLGEHILLNQTLSDVIHYFKSQRCGGVFDQQDRQVPVLNANQTVDVHGGWYDASGDVSKYLSHLSYANYLNPQQTPMVVWNILKGLSLLEGSEDIAAFTRTRLIEEALFGADFLVRMQNEKGFFYMTVFDKWSKDTAQREICAYETQLGHKFDDYQAGFRQGGGVAIAALAAASRLGVHGEYDQQKYRNAAENGYWHLKEHNTQYLNDGEENIIDEYCALLASVELFKATKETRYLEESRLWAQRLVARQMSDEQIQHFWSANQDGSRPYFHAAEAGLPGIALCEYLAIEDDSVQTESVKCIVNRACEFEIKISNKVTNPFGYPRQYVKGVNESKRDAFFVAHNNESGYWWQGENARLGSLATMAYLAQPHIASQEIQQQLSVFAQDALNWIVGLNPYDMCMLDGHGRNNPDYLPQYGFFNAKGGVCNGITGGFEDEEDIAFNPPAQKDDMLQNWRWGEQWIPHGAWYLLAIMSQAQHISQLATSKNIKEGHHHHHH,not soluble
4,MSLGELPPAPSDSKRTVFLDIDETLVHVTPYPLPFVKPDATFLLQEHRRPSDPPGVSPEYLPGVSAGAAPRAALLHVYYRPFLMPFLENLLQTNRCELVAFTAALREYADPILDGIETKLGGARGSVFAARLYRQHCARAPRSKDLVHAAPSRCLSRCVLLDNSVVSLAAQLANGLLLRPFYGDPQDRELEGVLAFLLDLLEKTGDIRESMKESGMLHKVTEGHHHHHH,not soluble
5,MSLGIRIGDGCIFRDPLTTRIDVSRPALVSIGSNVDMNTYFQILTHDWASFVFRNKYHDFVNSSGRVEIGSNIYIGTNVIVLRGVTIGDNCVIGAGSVVTHDIPANSVAVGAPCRVVCSLDEYYQKRKVKGLQEAVEHVKAFQKNFGRDPLPHELYEEFIYFVDASNVEEYERQGVPVRSQLSIAYGDWLSTHKAKFSSYDDFIQYVNQKMNETLEHHHHHH,not soluble
6,MSLGKEKKVYIFDSILRDGSQAQGVSFSVADKIKIVKKLDELGIDYIEAGNPSSNPKDREFFEEIRSLKLKHSKLCAFGSTRRAGAKAEEDEGIKKLVDSGVNVFSIFGKAWDFHVTDIIKTSIEENLNMIRDSIKYLVSLNKEVVFDAEHFFDGFKSNKEYAIEVLNTARLAGAKWIVLCDTNGGTMPNEVSDIVKYLVRDLNFDNLGVHFHDDSGMAVANSVVAVHYGVNHVQGTFTGVGERCGNANLSNIIANLSLKMGYNTIKNDKLEYLTVAFRYICEACNMTPNERVAYVGNCAFSHKGGMHIDAVRKNPKSFEHIDPSRVGNSRRILVSEVSGRSTILPALKRINPKIDKDSPETKAVVKRIKDLEYLGYQFEGAEGSFELLMRKELNVFRPSFELVEYKVIAERPYLSDLSATAIVKIMVNGKLETTAADGKGPVNALDKALRKALGVFYKELANVYLTDYKVRVISGTKATSAKIRVLIESTDGVSTWTTVGVSYDIIEASWLALVDSVEYKLIQCNKEENNNEKTDDYDTKNTEGHHHHHH,soluble
7,MSLGLDNLYRVLDANVNRTSEGLRVLEDLARFCYNDRLLSKRIKELRHSVRKNIAGLVPNLISSRDSVNDVGLKTSMEMDIDRKASLLDLARANFKRVQEALRTVEESLKVLNENDLSKFYESCRFETYSIEKEYFKVLTFENKKGRLNEIITGLYCITSEEHSKGRSNIEVVEKMIKAGVKIIQYREKKKSLLEKYNECKKIREMTLDSGVTFIVNDNIDIAMMVKADGVHIGQDDLPIEKVRELVGDEMIIGISTHSPTQAEDAVRRGADYIGVGPLYRTYTKEDVCEPVGLEYLDYVVKNINIPYVAIGGIKEHNMDEVLARGARCIAMVTEIVGADDIEEKISKVKSKFSRGEGHHHHHH,soluble
8,MSLGLVLSTNVAHIQQDPGGDDRISGINKLPVATGIDVFIPGPNYGDGSGVVGDAIGDSLHHGGAHKAIYAYSREELDFFDPTYRNGYFGENLTTSGIVLEDLLINQQVRIGTTLLEVSIPRRPCRTFAHWLDIKGWLKTFTQRGLPGSYFRVIEEGHINPGDPIEVLQAPDHDITMSMAFRAKMGNKDLARRVVAANCLPARYHEELLKLIEGHHHHHH,not soluble
9,MSLGNASMTKTDIATRVHNHTWKLDPIVRSLIDTDFYKLLMLQMIWKLYPEVDATFSLINRTKTVRLAEEIDEMELREQLDHARTLRLSKKENIWLAGNTFYGRSQIFEPEFLSWLSSYQLPEYELFKRDGQYELNFHGRWMDTTLWEIPALSIINELRSRSAMRSLGYFTLDVLYARAKAKMWEKVERLRELPGLRISDFGTRRRHSFLWQRWCVEALKEGIGPAFTGTSNVLLAMDSDLEAVGTNAHELPMVVAALAQTNEELAAAPYQVLKDWNRLYGGNLLIVLPDAFGTAAFLRNAPEWVADWTGFRPDSAPPIEGGEKIIEWWRKMGRDPRTKMLIFSDGLDVDAIVDTYRHFEGRVRMSFGWGTNLTNDFAGCAPKTIASLKPISIVCKVSDANGRPAVKLSDNPQKATGDPAEVERYLKFFGEEDHKEQKVLVEGHHHHHH,soluble
10,MSLGNYNSQYENYYRNLQNRSIRTSSYYKSSGFNRKNLGEKIIKKIEFQLIGTLVLFLAVFSLREVITPETKAACNYIKYTVSYNYDYSQILSYIEGFNLNDVETYASKIDMDSLKNQSVDYIENLKARVTGEKTFGAKIKQEYCLPINGKIASHFKQKDKDVLGNQYLNNGVDIKANSDLDVKAIYDGTVEKVGEDKDFGKYVMVDNGDGVESKYSNMDSFEVQRGDGVTKGEVLGKVKKNDDASKSYLHFEIMYMGENQDPENYFTFKEGHHHHHH,not soluble
11,MSLGPIIMGQSLKAGIFFRIVTGSASMSSDRADGSSVTYSSNRSGNPDLRLIHYNDVYHVEPGSAEPVGGAPRFQSVINHYRSHPSFDGQPTPLTFFSGDAFNPSLESTVTKGRHMVPFLNKAGTNVACVGNHDLDFGVAQFRHLRNQCQFPWLLANVLDPALGEDVPIANCEKTCMLTSSNGIKVGVIGLGEREWLGTINSLPPDLIYKSASKTAIELVPSLREQGAELIVAVTHQREPNDYKLAESIPYGMIDIILGGHDHFYGHAFLNGVHILRSGTDFKQLSYIEAFRKTDGRGWDFNIVRREGHHHHHH,soluble
12,MSLGQFSISEVGHFYIAANTSLKHIHVTCAIIERDGLVLAAQRSAVMSLPLKWEFPGGKIDPGESPEECLRRELVEEMAVHVRVGQSLPVSTHQYPTFSVTLYPFLCTIESGEIVLHEHVAVTWLPPDELHTLDWAEADLPVIKSYQQGCRMRDHEGHHHHHH,not soluble
13,MSLGSAIETLERLLKKRLRVPQEQLDTNPWLLNCANGTVDLRTGTLKAHRPEDYITRVVPLNFDPKATAPEFITTLARITCEEGQAGKPLCAFLQRWFGYCATGEVREQKFAVLYGDGNNGKSTLLDLITGILGRYSGVAAPGLLTGKNGPQHPNAIADLAGRRMVTTHESGEGEVLREDFVKQATGGDTLKARYLYGEFFEFKPTHKLQLLTNHKPAIKGQDSGIWRRIMLIPFKAKFDAAEGEEIGNGKYPRDMRIAEKLAAEREGVLAWIVAGAVEWYKNGLRPPDIVLAASEDYKEEQDRVGQFIDEECELGVEKEEKLSTPMGGGLYPAYTQWCKASGVCALSKVRFLGGLERRVPGFKKKVTKETVGAGKRREFVVIQGVALVDADEGHHHHHH,not soluble
14,MSLGTLPPELQNTCVARGKLPLLLDLDNTLLHAQAASATGCDVRLQDWIDPYGEPELYRFELPCNRKTYYMKLRPHLRTFLKKLEPFYEMSVYTNATQEYADIVIAILDGNRQLFQDRIVARDSGFRGEASENKAVRRLYEGMDKRCIVAFDDRQNIWTDLPLTHVVKAQHYDFFDSHKTELNAYYPPLSNGIEGMTAPDVLGNRQNEDEGHHHHHH,not soluble
15,MSLGVEENPKLPKSVQRHLEPDERVLFAIKKKISIEKPKWLLVTDRRIIYLDEKVLGRYDFKAIPYQKLEQVVVKLGIMSSEFIIEGEENITLKLGWMDKEEARKAINAIKDALNAIAVEPVSIDVNKGLTSETWVLKKPREFVTRTMPAYQPAQVREEKEDPLEKLKKLKELYDMGVISQEEYEEKRKKLLEEIEGHHHHHH,soluble
16,MSLGVSFNIMCPNSSIYSDEKSRVLVDKTKSGKVRPWREKKIANVDYFELLHILEFKKAERVKDCAEILEYKQNRETGERKLYRVWFCKSRLCPMCNWRRAMKHGIQSQKVVAEVIKQKPTVRWLFLTLTVKNVYDGEELNKSLSDMAQGFRRMMQYKKINKNLVGFMRATEVTINNKDNSYNQHMHVLVCVEPTYFKNTENYVNQKQWIQFWKKAMKLDYDPNVKVQMIRPKNKYKSDIQSAIDETAKYPVKDTDFMTDDEEKNLKRLSDLEEGLHRKRLISYGGLLKEIHKKLNLDDTEEGDLIHTDDDEKADEDGFSIIAMWNWERKNYFIKEEGHHHHHH,soluble
17,MSLHKEYIQNYLNLTRNTGNLMLFAGDQKIEHLNEDFYGKDISKDDADPEHLFKIAENSKIGGFAVQFGLLSRYGRDHKDINYIVKLNSKTNLVDTNQKDPLSRALLDINDILEFKKNSGINIVGVGYTIYLGSEYESEMLSEASKIIYEAHKGGLVVILWIYPRGKAVKDEKDSELISGATGVAACLGADFVKVNYPKSENPAESFKEAVMAAGRTKVVCAGGSSTDIESFLKQLYEQIHISGASGNATGRNIHQKSLSDAVSMCNAIYAITIDGKTVSEALNIYNERKSEGHHHHHH,not soluble
18,MSLHLSKGFSNMIGVVLPTVNLPYFAELIAGIADAAAESGVHLSLFQTNYEVQKEIFALSQLKQRQVDGLIFCSKALADEKLMEWEGPILLCQNSDNARFPTISIPHQEAFRNGLDYLIAKGHKKIAICLARKKGMNSHFRIKAYKEALEEIGEAFREDWVIEKAITINDGKALFHKWNTWKEKPTAIFVANDQVSAGLFLEAKNQRVSVPDELAILSVDNHEISQALGITTIDIQTREMGKQAFAILEKRIQGQPIERKVLDYRLIERSTVEGHHHHHH,soluble
19,MSLIEIPGFIDLHTHTRYPDNDKFPFIDIDDSAINGGFSTILAMPNSEIPIDSIKNLRIAQEIDKKLKTKVHRVGSLTKNLEGKELVNYKEFVENGITIFSDDGKSLINDHLADEAFKQISKLGGAVFQHCEKSCHSKPGDIAPPNSNSDLILINNDEELEVLERDLSLSEKYGTRYHAQHLSTFESVELIKKAKQEGLPVTAEVTPHHILLNNENLDTNNGLFKMYPPLRTEKDREGLVEGLQSEIIDVIATDHAPHKAETKNVPFKDANRGVVGLNEGHHHHHH,soluble
20,MSLIHEISENEKPREKLQNYGIEALSSSELVALIIETGTKNESVLTIANRIIMKFKNVGEMQYASIEEFQLVNGIGIAKASKIMAAIELGRRIGIVTEQEEVVVRCPEDAVKLVMPELAFLFQEHFHCLFLNTKNQVIYRQTIFVGGLNASIVHPREVFRLALRKSAASIMCFHNHPSGDPTPSSEDLLVTKRLAEAGNIVGITLLDHIIIGKNKYISLKEKGYFEGHHHHHH,not soluble
21,MSLIILDNHFHVDPNHGLFLEAVKQFQRAGGTHLIVVYKTAHDYGFPGLKAEDFMKAMDFHIELVEKINRETQVKAYAVVGVHPAEFDYLARNKGLEFARNEVMKALEYAQKLCLEGKAVGIGEVGRPHYEVPQQIWEVSIEIMKYAMELAKDADCAVQLHTESFNEEKFRELGEYIREVGIKPYKVVKHFSPPLVNVAKEVGVFPSIIASKKNIEEAIKQGNRFLMETDYIDDKRRPGAVLGPKTVPKRTKEFLQRGIFTEEDVYKIHVENPKKVYGIEIEGHHHHHH,soluble
